Measurements reported in patent US20240117030A1 (Pfizer, published 2024).
Where a chain is given by its changes, count along the chain named.

What was measured:
[1] = biological target: T1, recombinant human IL-33 (human, UniProt O95760 112-270, limits assumed); test: cell-based or functional assay
T1 sequence (looked up): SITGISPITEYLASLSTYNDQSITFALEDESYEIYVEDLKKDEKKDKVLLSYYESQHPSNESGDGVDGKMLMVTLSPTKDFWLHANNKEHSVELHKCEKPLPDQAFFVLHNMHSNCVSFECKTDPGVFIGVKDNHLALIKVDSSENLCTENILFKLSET

[2] = biological target: recombinant human IL-13 (human, UniProt P35225 35-146); test: cell-based or functional assay
[3] = biological target: recombinant human IL-13 (human, UniProt P35225 35-146); test: cell-based or functional assay; remark: listed apart in the source
[4] = biological target: T2, recombinant human IL-4 (human, UniProt P05112 25-153); test: cell-based or functional assay
T2 sequence (looked up): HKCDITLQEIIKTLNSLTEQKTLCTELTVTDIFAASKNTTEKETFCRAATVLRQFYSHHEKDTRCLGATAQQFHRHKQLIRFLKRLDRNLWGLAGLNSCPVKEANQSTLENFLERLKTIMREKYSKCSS

[5] = biological target: recombinant human TSLP (glycosylated long form) (human, UniProt Q969D9 29-159); test: cell-based or functional assay
[6] = biological target: T3, human TSLP (long form) (human, UniProt Q969D9 29-159, Biotinylated on the Avi tag in some assays; glycosylated (Expi293F expression)); test: bridging sandwich ELISA: human TSLP coated, Tri-Fab-Fc titrated, IL-13-FLAG added, detected with HRP anti-FLAG (OD450nm)
T3 construct: biotinylated in some assays; also called lfhTSLP; hTSLP

B1: IL33-158-152 (antibody, human IgG1, kappa, V domains shown)
VH: EVQLVESGGGLVQPGGSLRLSCAASGFTFSSYWMYWVRQAPGKGLEWVAAITPNAGEDYYPESVKGRFTISRDNAKNSLYLQMNSLRAEDTAVYYCARGHYYYTSYSLGYWGQGTLVTVSS
VL: DIQMTQSPSSLSASVGDRVTITCKASQNINKHLDWYQQKPGKAPKLLIYFTNNLQTGVPSRFSGSGSGTDFTLTISSLQPEDFATYYCFQYNQGWTFGGGTKVEIKR
IC50 (mean), HEK-Blue IL-33 SEAP [1]: 42.9 pM

B2: IL33-0726 (antibody, human IgG1, kappa, V domains shown)
VH: B1 VH with H100Q, S105K
VL: B1 VL with K24R, N28P, N30H, K31N, T51G, N52K, T56E, N92K, Q93K, T96S
IC50 (mean), HEK-Blue IL-33 SEAP [1]: 8.27 pM

B3: IL13-1307 (antibody, human IgG1, kappa, V domains shown)
VH: EVQLVESGGGLVQPGGSLRLSCAASGFTFSSYAMSWVRQAPGKGLEWVASISSGDTTYYPDSVKGRFTISRDNAKNSLYLQMNSLRAEDTAVYYCARLDGYYFGFPYWGQGTLVTVSS
VL: DIQMTQSPSSLSASVGDRVTITCKASESVDHSGSSLMHWYQQKPGKAPKLLIYRASNLESGVPSRFSGSGSGTDFTLTISSLQPEDFATYYCQQSNEDPWTFGGGTKVEIKR
IC50 (median), Monocyte CD23 expression [2]: 306 pM | IC50 (median), STAT6 phosphorylation in HT-29 cells [2]: 140 pM

B4: IL413TSLP-0008 (other)
heavy: EVQLVESGGGLVQPGGSLRLSCAASGFTFSSYAMSWVRQAPGKGLEWVASISSGDTTYYPDSVKGRFTISRDNAKNSLYLQMNSLRAEDTAVYYCARNEGYYFGLTLWGQGTLVTVSSASTKGPSVFPKAPSSKSTSGGTAALGCLVKDYFPEPVTVSWNSGALTSGVHTFPAVLQSSGLYSLSSSVTVPSSSLGTQTYICNVNHKPSNTKVDKKVEPKSCDKTHTCPPCPAPEAAGAPSVFLFPPKPKDTLMISRTPEVTCVVVDVSHEDPEVKFNWYVDGVEVHNAKTKPREEQYNSTYRVVSVLTVLHQDWLNGKEYKCKVSNKALPAPIEKTISKAKGQPREPQVCTLPPSREEMTKNQVSLWCLVKGFYPSDIAVEWESNGQPENNYKTTPPVLDSDGSFFLYSKLTVDKSRWQQGNVFSCSVMHEALHNHYTQKSLSLSPGK
chain 1: SYVLTQPPSVSVAPGQTARITCGGNNLGSKSVHWYQQKPGQAPVLVVYDDSDRPSWIPERFSGSNSGNTATLTISRGEAGDEADYYCQVWDSSSDHVVFGGGTKLTVLASTKGPSVFPLAPSSKSTSGGTAALGCLVKDYFPEPVTVSWNSGALTSGVHTFPAVLQSSGLYSLSSVVTVPSSSLGTQTYICNVNHKPSNTKVDKKVEPKSCGGGGSEVTLRESGPALVKPTQTLTLTCTFSGFSLSNFGEGLSWIRQPPGKGLEWLAHIYWDDDKRYNPSLKSRLTISKDTSRNQVVLTMTNMDPVDTATYYCARRETVFYWYFDVWGQGTTVTVSSASTKGPSVFPEAPSSKSTSGGTAALGCLVKDYFPEPVTVSWNSGALTSGVHTFPAVLQSSGLYSLGSVVTVPSSSLGTQTYICNVNHKPSNTKVDKKVEPKSCDKTHTCPPCPAPEAAGAPSVFLFPPKPKDTLMISRTPEVTCVVVDVSHEDPEVKFNWYVDGVEVHNAKTKPREEQYNSTYRVVSVLTVLHQDWLNGKEYKCKVSNKALPAPIEKTISKAKGQPREPQVYTLPPCREEMTKNQVSLSCAVKGFYPSDIAVEWESNGQPENNYKTTPPVLDSDGSFFLVSKLTVDKSRWQQGNVFSCSVMHEALHNHYTQKSLSLSPGK
light 1: DIQMTQSPSSLSASVGDRVTITCKASESVDHFGWSLVHWYQQKPGKAPKLLIYRASNLESGVPSRFSGSGSGTDFTLTISSLQPEDFATYYCQQSNEDPWTFGGGTKVEIKRTVAAPSVFIFPPSDEQLKSGTASVSCLLNNFYPREAKVQWKVDNALQSGNSQESVTEQDSKDSTYSLDSTLTLSKADYEKHKVYACEVTHQGLSSPVTKSFNRGEC
light 2: B4 light 1 with E27Q, H31E, F32D, W34D, L36Y, V37M, H38N, R54A, W100P, D180K
chain 2: QMQLVESGGGVVQPGRSLRLSCAASGFTFRTYGMHWVRQAPGKGLEWVAVIWYDGSNKHYADSVKGRFTITRDNSKNTLNLQMNSLRAEDTAVYYCARAPQWELVHEAFDIWGQGTMVTVSSGQPKAAPSVTLFPPSSEELQANKATLVCLISDFYPGAVTVAWKADSSPVKAGVETTTPSKQSNNKYAASSYLSLTPEQWKSHRSYSCQVTHEGSTVEKTVAPTECS
a-hIL-13 bioassay (IC50, pM) [3]: 10.6 pM | a-hIL-4 bioassay IC50, pM) [4]: 9.07 pM | a-TSLP TARC bioassay (IC50; pM) [5]: 17.7 pM

B5: IL413TSLP-0001 (trispecific antibody, human IgG1, kappa, lambda)
heavy: EVTLRESGPALVKPTQTLTLTCTFSGFSLSNFGEGLSWIRQPPGKGLEWLAHIYWDDDKRYNPSLKSRLTISKDTSRNQVVLTMTNMDPVDTATYYCARRETVFYWYFDVWGQGTTVTVSSASTKGPSVFPEAPSSKSTSGGTAALGCLVKDYFPEPVTVSWNSGALTSGVHTFPAVLQSSGLYSLGSVVTVPSSSLGTQTYICNVNHKPSNTKVDKKVEPKSCDKTHTCPPCPAPEAAGAPSVFLFPPKPKDTLMISRTPEVTCVVVDVSHEDPEVKFNWYVDGVEVHNAKTKPREEQYNSTYRVVSVLTVLHQDWLNGKEYKCKVSNKALPAPIEKTISKAKGQPREPQVYTLPPCREEMTKNQVSLSCAVKGFYPSDIAVEWESNGQPENNYKTTPPVLDSDGSFFLVSKLTVDKSRWQQGNVFSCSVMHEALHNHYTQKSLSLSPGK
chain 1: QMQLVESGGGVVQPGRSLRLSCAASGFTFRTYGMHWVRQAPGKGLEWVAVIWYDGSNKHYADSVKGRFTITRDNSKNTLNLQMNSLRAEDTAVYYCARAPQWELVHEAFDIWGQGTMVTVSSGQPKAAPSVTLFPPSSEELQANKATLVCLISDFYPGAVTVAWKADSSPVKAGVETTTPSKQSNNKYAASSYLSLTPEQWKSHRSYSCQVTHEGSTVEKTVAPTECSGGGGSEVQLVESGGGLVQPGGSLRLSCAASGFTFSSYAMSWVRQAPGKGLEWVASISSGDTTYYPDSVKGRFTISRDNAKNSLYLQMNSLRAEDTAVYYCARNEGYYFGLTLWGQGTLVTVSSASTKGPSVFPKAPSSKSTSGGTAALGCLVKDYFPEPVTVSWNSGALTSGVHTFPAVLQSSGLYSLSSSVTVPSSSLGTQTYICNVNHKPSNTKVDKKVEPKSCDKTHTCPPCPAPEAAGAPSVFLFPPKPKDTLMISRTPEVTCVVVDVSHEDPEVKFNWYVDGVEVHNAKTKPREEQYNSTYRVVSVLTVLHQDWLNGKEYKCKVSNKALPAPIEKTISKAKGQPREPQVCTLPPSREEMTKNQVSLWCLVKGFYPSDIAVEWESNGQPENNYKTTPPVLDSDGSFFLYSKLTVDKSRWQQGNVFSCSVMHEALHNHYTQKSLSLSPGK
light 1: B4 light 1 with E27Q, H31E, F32D, W34D, L36Y, V37M, H38N, R54A, W100P, D180K
light 2: B4 light 1
chain 2: SYVLTQPPSVSVAPGQTARITCGGNNLGSKSVHWYQQKPGQAPVLVVYDDSDRPSWIPERFSGSNSGNTATLTISRGEAGDEADYYCQVWDSSSDHVVFGGGTKLTVLASTKGPSVFPLAPSSKSTSGGTAALGCLVKDYFPEPVTVSWNSGALTSGVHTFPAVLQSSGLYSLSSVVTVPSSSLGTQTYICNVNHKPSNTKVDKKVEPKSC
EC50 (read off the curve) [6]: ~0.6 nM

B6: IL413TSLP-0008 (trispecific antibody, human IgG1, kappa, lambda)
heavy: B4 heavy
chain 1: B4 chain 1
light 1: B4 light 1
light 2: B4 light 1 with E27Q, H31E, F32D, W34D, L36Y, V37M, H38N, R54A, W100P, D180K
chain 2: B4 chain 2
EC50 (read off the curve) [6]: ~0.6 nM
